In FireProtDB (doi:10.1021/bi9815243):

B1: Guanyl-specific ribonuclease Sa wild type, P05798 (protein)
chain: DVSGTVCLSALPPEATDTLNLIASDGPFPYSQDGVVFQNRESVLPTQSYGYYHEYTVITPGARTRGTRRIITGEATQEDYYTGDHYATFSLIDQTC
B2: Guanyl-specific ribonuclease T1 wild type, P00651 (protein)
chain: MMYSKLLTLTTLLLPTALALPSLVERACDYTCGSNCYSSSDVSTAQAAGYQLHEDGETVGSNSYPHKYNNYEGFDFSVSSPYYEWPILSSGDVYSGGSPGADRVVFNENNQLAGVITHTGASGNNFVECT

Conditions: Kitasatospora aureofaciens; pH 2; Thermal; CD; MOPS 30 mM; transition: 2; reversible: Yes; whole UniProt chain shown
In the case of B1, the Tm is reported as 28 °C and the “unfolding enthalpy (van 't Hoff)” value is reported as 58.8 kcal/mol.

Same assay, conditions: Kitasatospora aureofaciens; pH 7; Thermal; CD; MOPS 30 mM; reversible: yes (>95%); whole UniProt chain shown
With B1 the Tm was 48.4 °C and the “unfolding enthalpy (van 't Hoff)” value was 92.4 kcal/mol.

Same assay, conditions: Kitasatospora aureofaciens; pH 7; Thermal; CD; MOPS 30 mM; transition: 2; reversible: Yes; whole UniProt chain shown
In the case of B1, the Tm is reported as 48.4 °C and the “unfolding enthalpy (van 't Hoff)” value is reported as 92.4 kcal/mol.

Same assay, conditions: Aspergillus oryzae (strain ATCC 42149 / RIB 40); pH 2.7; 25 °C; Urea; CD; glycine 30 mM; reversible: yes (>95%); whole UniProt chain shown
In the case of B2, the denaturant m value is reported as 1.64 kcal/mol/M, the “denaturant midpoint (higher = more stable)” value (“denaturant midpoint” for short) is reported as 3.75 M and the unfolding free energy is reported as 6.13 kcal/mol.

Same assay, conditions: Aspergillus oryzae (strain ATCC 42149 / RIB 40); pH 2.7; 25 °C; Urea; Fluorescence; glycine 30 mM; transition: 2; reversible: Yes; whole UniProt chain shown
For B2, the denaturant m value was 1.64 kcal/mol/M, the “denaturant midpoint” value was 3.75 M and the unfolding free energy was 6.13 kcal/mol.

Same assay, conditions: Aspergillus oryzae (strain ATCC 42149 / RIB 40); pH 7; 25 °C; Urea; CD; MOPS 30 mM; reversible: yes (>95%); whole UniProt chain shown
With B2 the denaturant m value was 1.17 kcal/mol/M, the “denaturant midpoint” value was 5.2 M and the unfolding free energy was 6.09 kcal/mol.

Same assay, conditions: Aspergillus oryzae (strain ATCC 42149 / RIB 40); pH 7; 25 °C; Urea; Fluorescence; MOPS 30 mM; transition: 2; reversible: Yes; whole UniProt chain shown
For B2, the denaturant m value was 1.17 kcal/mol/M, the “denaturant midpoint” value was 5.2 M and the unfolding free energy was 6.09 kcal/mol.

Same assay, conditions: Aspergillus oryzae (strain ATCC 42149 / RIB 40); pH 7; Thermal; CD; MOPS 30 mM; reversible: yes (>95%); whole UniProt chain shown
With B2 the Tm was 50.8 °C and the “unfolding enthalpy (van 't Hoff)” value was 96.6 kcal/mol.

Same assay, conditions: Aspergillus oryzae (strain ATCC 42149 / RIB 40); pH 7; Thermal; CD; MOPS 30 mM; transition: 2; reversible: Yes; whole UniProt chain shown
For B2, the Tm was 50.8 °C and the “unfolding enthalpy (van 't Hoff)” value was 96.6 kcal/mol.
